Test results from the supplement of paper PMC9112550, “Optimization of the antimicrobial peptide Bac7 by deep mutational scanning” (BMC Biology, 2022).

Tested on: Escherichia coli TOP10
Assay: shrunken log2 fold change of peptide-encoding DNA abundance (4.5 h post-induction vs induction); higher = less antimicrobial activity (less host growth inhibition)
Details: time post-induction: 4.5 h; library: site-saturation at positions 5, 18, 19, 20
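Note: peptides expressed intracellularly from a pBAD plasmid library in pooled LB shake-flask culture, induced with 0.3% L-arabinose, DNA abundance read by NGS, three biological replicates, DESeq2 with apeglm shrinkage.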

Sequence | shrunken log2 fold change
RRIRLRPPRLPRPRPRPDHPPRP | -0.123
RRIRLRPPRLPRPRPRPDILPRP | -0.154
RRIRLRPPRLPRPRPRPDKAPRP | 0.0248
RRIRLRPPRLPRPRPRPDLIPRP | -0.0276
RRIRLRPPRLPRPRPRPDLSPRP | -0.112
RRIRLRPPRLPRPRPRPDMFPRP | -0.218
RRIRLRPPRLPRPRPRPDMSPRP | -0.428
RRIRLRPPRLPRPRPRPDNNPRP | -0.444
RRIRLRPPRLPRPRPRPDPPPRP | 0.337
RRIRLRPPRLPRPRPRPDQDPRP | -0.218
RRIRLRPPRLPRPRPRPDTWPRP | 0.0224
RRIRLRPPRLPRPRPRPDVPPRP | -0.284
RRIRLRPPRLPRPRPRPDVVPRP | 0.0387
RRIRLRPPRLPRPRPRPDWNPRP | -0.689
RRIRLRPPRLPRPRPRPDYHPRP | -0.576
RRIRLRPPRLPRPRPRPEAAPRP | 0.732
RRIRLRPPRLPRPRPRPEAYPRP | 0.0406
RRIRLRPPRLPRPRPRPECCPRP | 0.338
RRIRLRPPRLPRPRPRPEESPRP | 0.012
RRIRLRPPRLPRPRPRPEFIPRP | 0.0915

Sequence | shrunken log2 fold change
RRIRLRPPRLPRPRPRPEFPPRP | -0.0973
RRIRLRPPRLPRPRPRPEGDPRP | 0.0662
RRIRLRPPRLPRPRPRPEIKPRP | -0.12
RRIRLRPPRLPRPRPRPEINPRP | -0.0201
RRIRLRPPRLPRPRPRPEIYPRP | -0.0581
RRIRLRPPRLPRPRPRPEKAPRP | 0.166
RRIRLRPPRLPRPRPRPEKWPRP | -0.0497
RRIRLRPPRLPRPRPRPELFPRP | 0.303
RRIRLRPPRLPRPRPRPELHPRP | 0.327
RRIRLRPPRLPRPRPRPELVPRP | 0.113
RRIRLRPPRLPRPRPRPENGPRP | -0.108
RRIRLRPPRLPRPRPRPENRPRP | 0.097
RRIRLRPPRLPRPRPRPERFPRP | 0.219
RRIRLRPPRLPRPRPRPERPPRP | 0.157
RRIRLRPPRLPRPRPRPESYPRP | -0.266
RRIRLRPPRLPRPRPRPETGPRP | -0.0316
RRIRLRPPRLPRPRPRPETMPRP | 0.0125
RRIRLRPPRLPRPRPRPEWVPRP | 0.36
RRIRLRPPRLPRPRPRPFEYPRP | -0.0121
RRIRLRPPRLPRPRPRPFFAPRP | 0.169

Sequence | shrunken log2 fold change
RRIRLRPPRLPRPRPRPFGAPRP | -0.0596
RRIRLRPPRLPRPRPRPFGYPRP | -0.291
RRIRLRPPRLPRPRPRPFHYPRP | -0.211
RRIRLRPPRLPRPRPRPFINPRP | -0.572
RRIRLRPPRLPRPRPRPFITPRP | -0.35
RRIRLRPPRLPRPRPRPFKQPRP | -0.0215
RRIRLRPPRLPRPRPRPFLAPRP | -0.141
RRIRLRPPRLPRPRPRPFLEPRP | -0.106
RRIRLRPPRLPRPRPRPFLPPRP | -0.171
RRIRLRPPRLPRPRPRPFMRPRP | 0.495
RRIRLRPPRLPRPRPRPFMWPRP | -0.121
RRIRLRPPRLPRPRPRPFPVPRP | 0.11
RRIRLRPPRLPRPRPRPFQGPRP | 0.0498
RRIRLRPPRLPRPRPRPFRPPRP | 0.0752
RRIRLRPPRLPRPRPRPFRWPRP | 0.202
RRIRLRPPRLPRPRPRPFSEPRP | -0.0881
RRIRLRPPRLPRPRPRPFSHPRP | -0.262
RRIRLRPPRLPRPRPRPFSTPRP | 0.0382
RRIRLRPPRLPRPRPRPFSYPRP | -0.747
RRIRLRPPRLPRPRPRPFVAPRP | -0.0302
